Our source for the AUC (area under the FRET curve after agonist wash-out) values is paper PMC13083859.

For the experiment, the target named is human muscarinic M3 receptor with C-terminal mCitrine (M3-mCit), wild type (human) (UniProt P20309). The experiment can be described thus: FRET or BRET; single-cell FRET between receptor-mCitrine and mTurq-Gγ2 of the co-expressed heterotrimer (Gαo or Gαq, Gβ1, Gγ2) in HEK293T cells permeabilized with 0.05% saponin for 2 min (GTP depletion), PTX-A co-expressed; room temperature; internal buffer pH 7.35; complex induced by 10 µM acetylcholine, its stability after wash-out quantified as area under the curve (AUC); complete dissociation by 1 µM GTPγS.
Chain of UniProt P20309 (P20309 whole entry): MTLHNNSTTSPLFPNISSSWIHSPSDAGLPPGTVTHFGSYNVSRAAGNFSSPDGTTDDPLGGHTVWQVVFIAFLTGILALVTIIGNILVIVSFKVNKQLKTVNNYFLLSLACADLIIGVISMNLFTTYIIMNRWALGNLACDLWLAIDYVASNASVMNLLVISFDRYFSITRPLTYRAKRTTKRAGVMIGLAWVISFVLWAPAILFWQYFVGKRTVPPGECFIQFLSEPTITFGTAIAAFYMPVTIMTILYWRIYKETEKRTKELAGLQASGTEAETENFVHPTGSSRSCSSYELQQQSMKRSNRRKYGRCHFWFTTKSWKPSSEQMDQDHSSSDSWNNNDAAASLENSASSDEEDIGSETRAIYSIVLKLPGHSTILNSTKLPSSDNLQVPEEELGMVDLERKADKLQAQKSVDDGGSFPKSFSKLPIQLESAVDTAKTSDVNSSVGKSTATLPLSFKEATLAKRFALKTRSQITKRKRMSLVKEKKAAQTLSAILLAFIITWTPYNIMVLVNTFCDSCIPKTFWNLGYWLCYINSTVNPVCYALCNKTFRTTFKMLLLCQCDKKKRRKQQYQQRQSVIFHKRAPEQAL

“Gq heterotrimer: Gαq, Gβ1-wt and mTurq-Gγ2 (from UniProt P50148 1-359; P62873 1-340; P59768 1-71) (complex; other documents disagree on this pair)” came in with an AUC (area under the FRET curve after agonist wash-out) of 106 a.u.

“Go heterotrimer: PTX-insensitive Gαo, Gβ1-wt and mTurq-Gγ2 (from UniProt P09471 1-354; P62873 1-340; P59768 1-71) (complex)” returned an AUC (area under the FRET curve after agonist wash-out) of 30 a.u.
